B1: Mutant Oad 1: variant of Leuconostoc mesenteroides oad with mutations N45T, R249L, D302G, V418A and L476Q (protein)
chain: MTDTLTFNTKHLLEALFESGIRHFIVSPGSRSTPIALLLAEYAEQTNEIKLFVDVDERSAGFFALGIAKTLLEPVVLLGTSGTAIAEYMPAVAEAYAANIPLVVLSTDRPQELQFNGAPQTIPQSNLFGQLTKQAVLIRLQDMHSDVTEYIDFIVQKVVNLSITAPRGPIQINLPLRKPLMPVLDRQDEVHVQRVVFDKQSVQYRLPPITAKRLLILAGPNVLNSYDDSLKKFAIKNNVPVIADVLSQSLHTYTIHGIDVLLQAHKINADLKPDLVVRFGKTPVSARVLQWLKEENILTWHVGEDAGVDHTRHIVRAIKMAPHDFLESMHLTLSKNQIDFNQKWLSLPKVIKTRNEMNIITALDDAVPDDTHIFVANSMPIRDMDNFFTGNHTQRIYANRGANGIDGVISSALGMSAVAKQRSVLLTGDLTLFHDMNGLMMAKNYQLPLDIIVINNNGGGIFSFLPQAGAPKYFEQQFGTPLNIDIKKIADLYYIDYHQLNVPEALSQILQTPSKTTRLIEYKSDHQRNRDDHREVLEMLK
modifications: Leuconostoc mesenteroides
notes: variant of Leuconostoc mesenteroides oad with mutations N45T, R249L, D302G, V418A and L476Q
B2: Mutant Oad 2: variant of Leuconostoc mesenteroides oad with mutation T479N (protein)
chain: MTDTLTFNTKHLLEALFESGIRHFIVSPGSRSTPIALLLAEYAEQNNEIKLFVDVDERSAGFFALGIAKTLLEPVVLLGTSGTAIAEYMPAVAEAYAANIPLVVLSTDRPQELQFNGAPQTIPQSNLFGQLTKQAVLIRLQDMHSDVTEYIDFIVQKVVNLSITAPRGPIQINLPLRKPLMPVLDRQDEVHVQRVVFDKQSVQYRLPPITAKRLLILAGPNVLNSYDDSLKKFAIKNNVPVIADVLSQSRHTYTIHGIDVLLQAHKINADLKPDLVVRFGKTPVSARVLQWLKEENILTWHVDEDAGVDHTRHIVRAIKMAPHDFLESMHLTLSKNQIDFNQKWLSLPKVIKTRNEMNIITALDDAVPDDTHIFVANSMPIRDMDNFFTGNHTQRIYANRGANGIDGVISSALGMSAVVKQRSVLLTGDLTLFHDMNGLMMAKNYQLPLDIIVINNNGGGIFSFLPQAGAPKYFEQLFGNPLNIDIKKIADLYYIDYHQLNVPEALSQILQTPSKTTRLIEYKSDHQRNRDDHREVLEMLK
modifications: Leuconostoc mesenteroides
notes: variant of Leuconostoc mesenteroides oad with mutation T479N
B3: Mutant Oad 3: variant of Leuconostoc mesenteroides oad with mutations R394C, D434G and T511A (protein)
chain: MTDTLTFNTKHLLEALFESGIRHFIVSPGSRSTPIALLLAEYAEQNNEIKLFVDVDERSAGFFALGIAKTLLEPVVLLGTSGTAIAEYMPAVAEAYAANIPLVVLSTDRPQELQFNGAPQTIPQSNLFGQLTKQAVLIRLQDMHSDVTEYIDFIVQKVVNLSITAPRGPIQINLPLRKPLMPVLDRQDEVHVQRVVFDKQSVQYRLPPITAKRLLILAGPNVLNSYDDSLKKFAIKNNVPVIADVLSQSRHTYTIHGIDVLLQAHKINADLKPDLVVRFGKTPVSARVLQWLKEENILTWHVDEDAGVDHTRHIVRAIKMAPHDFLESMHLTLSKNQIDFNQKWLSLPKVIKTRNEMNIITALDDAVPDDTHIFVANSMPIRDMDNFFTGNHTQCIYANRGANGIDGVISSALGMSAVVKQRSVLLTGDLTLFHGMNGLMMAKNYQLPLDIIVINNNGGGIFSFLPQAGAPKYFEQLFGTPLNIDIKKIADLYYIDYHQLNVPEALSQILQAPSKTTRLIEYKSDHQRNRDDHREVLEMLK
modifications: Leuconostoc mesenteroides
notes: variant of Leuconostoc mesenteroides oad with mutations R394C, D434G and T511A
B4: KGD: alpha-ketoglutarate decarboxylase (kgd) from Mycobacterium tuberculosis, penta-histidine tag, purified (protein, listed as Mycobacterium tuberculosis)
chain: MNLRGTAARRRHRATGDTLDARQLVRQQLRQLQTETRPGALVRWFLLDPKELFDIFVTIQGFTQTTTRQRRQLLQTHNCQIITVVFRLACRQFIIQLTGGQQNTANFIAVADTILVGRFLQDATEFNLGKILNLRNRRLVAQHGFRGKHDQRTLDAVQRVAAQQVKVIGRGARHRDRHATLSPQLQKALNARRRVVRALTLVAVWQQQNNVGQLTPFRFARADELVNDRLGTINKVAELRLPQHNRVWIANGITVLKTHSRVFRQRRIINQELTTGRAAVAVSRQQLQRGELLAGVTVDQHRMTLAKGATTRVLTAQTDQLALSNQAAQRQQLTKRPVNLTLIRHLTTLFQHRLNARVCRETVRQRQEGITDTCQQGFVNSGRQARWDHLVRLDALRRLDAVLLQFAHFVEHTLQLALVIAQRILRLFHADVATTDQSLGVGFTGATLGVHDVIDIRIGHRWIVTLIMTTTTIAQHVNNNVLFKALAEVNCQTRNPDTRFWIVAVHVEDWRTDHLRHIRAVLARTRVFRSGGEADLVVHNDVNRTTHTIARQICQIQRLRNNALTREGRITVQHQRNDGECTLAVGVNGTVVQQVLLRTHQTFQHWIDRFQMGRICRQGNLNIVIAKHLQIQTRRTQVVLDIAGTVSLGRVQIAFKLRKDLRIRFAHDVRQDIQATTVRHANDHFIQTMLGTLVNRRVHHWNNRFRTLQAKTLLAHILGLQEGFKRLRCVQFRQDVLLLSNGRFDVLRLDTLLQPLLLFRVQNVRVLNTDVTAVRVAQQTQHVTQLFVLSTRETVNLKDAVQVPQSQAMRQHLQIRMRTKARLIQAQRVGVRHQMAAVAIGRDQVHHTCVLVNDRVRIIGAPTHWQVRDAQLAEDLIPEAIRQQQFMNGTQEVTAFRTLNDTVVVGRSQGNQFANTQLSDAFLGRALELRRIFHRTDTDDSTLTWHQAWHRVHRANRARIRQRNRNASEVLGGQFTITSTTDDVLVRGNELREAHRLATFDTGHHQRALAIFTLQVNSQTQIGVRRSNRRRLTVHLRVVAIHIRELLNRLNQSITQQMGKADFTTTRAFQLIIDHDTIIDQQFRWHSTHRGRRRHFQRRAHVLHDSSRRTTQDSNFIAFGWRRHRGLGGQSRHDTVARCGRVGRFRRRLRSRRCRTLSDQRAGHTSRLSSRLGSRLRAIVHQKLMPAWVNGRRIITKFTIHTNTRRVLSHHGYISFLKNSISQRQGRHKIYSKCIINTDNIL
modifications: penta-histidine tag
notes: alpha-ketoglutarate decarboxylase (kgd) from Mycobacterium tuberculosis, penta-histidine tag, purified

Legend:
Type in all cases: biochemical
[1] = Coupled spectrophotometric assay of oxaloacetate alpha-decarboxylase activity (purified YdfG, NADPH absorbance at 340 nm); settings: for Average Specific Activity: oad variants versus native Oad in the spectrophotometric assay; for Fold Increase in oxaloacetate alpha-decarboxylase specific activity: relative to native (parent) Oad lacking mutations, in vitro
Procedure: A coupled assay was developed in order to biochemically assess the oxaloacetate alpha-decarboxylase activity of the candidate enzymes. The coupled assay used exogenously-added purified E. coli YdfG protein, which converts malonate semialdehyde to 3-HP with the concomitant conversion of NADPH to NADP^+ (FIG. 5). […] 3-HP is also detectable by standard analytical methods, for example HPLC and GS-MS. Assays were performed as 200 microliter reactions in a 96-well plate format using a Molecular Dynamics SpectraMax 384 microplate reader with SoftmaxPro software (Molecular Dynamics, Sunnyvale Calif.) to quantitate the rate of change in the 340 nm absorbance. All assays were conducted at 37° C., and the instrument was allowed to mix the plate for 1 second prior to each measurements. The progress of each reaction was monitored for 20 minutes during which measurements were made every 20 seconds. Reaction conditions consisted of 50 mM PIPES pH 6.8 (unless otherwise stated), 2 mM thymidine pyrophosphate, 10 mM dithiothreitol, 4 mM magnesium chloride, 1 mM NADPH (EMD Bioscience), 0.075 mg/mL purified YdfG (Molecular Throughput), and 5 mM oxaloacetate (unless otherwise stated). All chemicals were obtained from Sigma-Aldrich (St. Louis, Mo.) unless otherwise stated. Reactions were initiated with the addition of 10 microliters of concentrated purified protein to each reaction well. In addition, a negative control was performed with each experimental set to control for the rate of background NADPH oxidation. Once the reaction time course was read and the slopes of each well were calculated, the specific activities over the negative control of each candidate protein were calculated. All values reported are the average specific activities measured in triplicate.

[2] = GC-MS analysis of 3-HP produced in the spectrophotometric assay samples
Procedure: A coupled assay was developed in order to biochemically assess the oxaloacetate alpha-decarboxylase activity of the candidate enzymes. The coupled assay used exogenously-added purified E. coli YdfG protein, which converts malonate semialdehyde to 3-HP with the concomitant conversion of NADPH to NADP^+ (FIG. 5). […] 3-HP is also detectable by standard analytical methods, for example HPLC and GS-MS. Assays were performed as 200 microliter reactions in a 96-well plate format using a Molecular Dynamics SpectraMax 384 microplate reader with SoftmaxPro software (Molecular Dynamics, Sunnyvale Calif.) to quantitate the rate of change in the 340 nm absorbance. […] The progress of each reaction was monitored for 20 minutes during which measurements were made every 20 seconds. […] Once the reaction time course was read and the slopes of each well were calculated, the specific activities over the negative control of each candidate protein were calculated. All values reported are the average specific activities measured in triplicate.
Activity of KGD was not measured by the spectrophotometric assay.
Conformation of 3-HP production as well as assessment of the pH dependence of each candidate enzyme was performed as described above, except that coupled reactions with YdfG were evaluated for 3-HP production by GC-MS. […]

[3] = GC-MS confirmation of 3-HP production and pH dependence of candidate enzymes (coupled reaction with YdfG); settings: 3-HP by GC-MS at pH 5.5, pH 6.0 and pH 6.8; 5 mM oxaloacetate; 37° C., at least 12 hours
Procedure: Conformation of 3-HP production as well as assessment of the pH dependence of each candidate enzyme was performed as described above, except that coupled reactions with YdfG were evaluated for 3-HP production by GC-MS. Reaction conditions consisted of 50 mM PIPES pH 6.8, 2 mM thymidine pyrophosphate, 10 mM dithiothreitol, 4 mM magnesium chloride, 1 mM NADPH (EMD Bioscience), 0.075 mg/mL purified YdfG (Molecular Throughput), and 5 mM oxaloacetate (unless otherwise stated). All chemicals were obtained from Sigma-Aldrich unless otherwise stated. Reactions were performed at 0.6 mL volumes in triplicate and were initiated with the addition of 600 micrograms of purified protein. In addition, a negative control lacking protein was also performed with each set. Reactions were allowed to proceed at 37° C. for at least 12 hours. […] Soluble monomeric 3-HP is quantified using GC-MS after a single exaction with ethyl acetate from a reaction sample. […] A standard curve of known 3-HP concentrations is prepared at the beginning of the run and a known quantity of ketohexanoic acid (1 g/L) is added to both the standards and the samples to act as an internal standard for Quantitation, with tropic acid as an additional internal standard. […] 3-HP is quantified using a 3HP standard curve at the beginning of the run and the data are analyzed using HP Chemstation. […]

Row | Molecule | Average Specific Activity [1] [units/mg] | Fold Increase in oxaloacetate alpha-decarboxylase specific activity [1] [fold] | Final [3HP] ([2]; Beginning [OAA] 5 mM, pH 6.8) [g/L] | 3-HP production confirmed by GC-MS ([2]; in the presence of 5 mM oxaloacetate) | pH of optimal activity [3]
1 | B1 | 0.0121 | 1.6 |  |  | 
2 | B2 | 0.0173 | 2.2 |  |  | 
3 | B3 | 0.0222 | 2.8 |  |  | 
4 | B4 |  |  | 0.004 ± 0.001 | 3-HP was produced | 6.8

Reference: patent publication US8809027B1, “Genetically modified organisms for increased microbial production of 3-hydroxypropionic acid involving an oxaloacetate alpha-decarboxylase” (OPX Biotechnologies, Inc., priority 2009, dated 2014)
